The supplement of paper PMC11246515
± gives the standard deviation of the averaged measurements.

Assay: total protein half-life in vivo (active degradation + dilution); higher = more stable protein
[1] = E. coli NCM3722 delta-clpP delta-lon delta-hslV, growth: N-lim chemostat, doubling time 6 h
[2] = E. coli NCM3722 delta-hslV, growth: N-lim chemostat, doubling time 6 h
[3] = E. coli NCM3722 delta-lon, growth: N-lim chemostat, doubling time 6 h
[4] = E. coli NCM3722 delta-smpB, growth: N-lim chemostat, doubling time 6 h
[5] = wild type E. coli NCM3722, growth: C-lim chemostat, doubling time 12 h
[6] = wild type E. coli NCM3722, growth: N-lim chemostat, doubling time 6 h
[7] = wild type E. coli NCM3722, growth: N-lim chemostat, doubling time 12 h
[8] = wild type E. coli NCM3722, growth: P-lim chemostat, doubling time 6 h
[9] = wild type E. coli NCM3722, growth: P-lim chemostat, doubling time 12 h
[10] = E. coli NCM3722 delta-clpP, growth: N-lim chemostat, doubling time 6 h
[11] = wild type E. coli NCM3722, growth: C-lim chemostat, doubling time 6 h
[12] = wild type E. coli NCM3722, growth: C-lim chemostat, doubling time 3 h

| Sequence | total protein half-life in vivo [1] [h] | total protein half-life in vivo [2] [h] | total protein half-life in vivo [3] [h] | total protein half-life in vivo [4] [h] | total protein half-life in vivo [5] [h] | total protein half-life in vivo [6] [h] | total protein half-life in vivo [7] [h] | total protein half-life in vivo [8] [h] | total protein half-life in vivo [9] [h] | total protein half-life in vivo [10] [h] | total protein half-life in vivo [11] [h] | total protein half-life in vivo [12] [h] |
| --- | --- | --- | --- | --- | --- | --- | --- | --- | --- | --- | --- | --- |
| MAATKPAFNPPGKKGDIIFSVLVKLAALIVLLMLGGIIVSLIISSWPSIQKFGLAFLWTKEWDAPNDIYGALVPIYGTLVTSFIALLIAVPVSFGIALFLTELAPGWLKRPLGIAIELLAAIPSIVYGMWGLFIFAPLFAVYFQEPVGNIMSNIPIVGALFSGPAFGIGILAAGVILAIMIIPYIAAVMRDVFEQTPVMMKESAYGIGCTTWEVIWRIVLPFTKNGVIGGIMLGLGRALGETMAVTFIIGNTYQLDSASLYMPGNSITSALANEFAEAESGLHVAALMELGLILFVITFIVLAASKFMIMRLAKNEGAR [P0AGH8] | 5.52 ± 1 | 5.62 ± 0.46 | 5.31 ± 1.4 | 5.08 ± 0.47 | 15.4 | 3.42 | 12.1 | 5.49 ± 0.25 | 11.4 ± 0.52 | – | – | – |
| MACGEFSLIARYFDRVRSSRLDVELGIGDDCALLNIPEKQTLAISTDTLVAGNHFLPDIDPADLAYKALAVNLSDLAAMGADPAWLTLALTLPDVDEAWLESFSDSLFDLLNYYDMQLIGGDTTRGPLSMTLGIHGFVPMGRALTRSGAKPGDWIYVTGTPGDSAAGLAILQNRLQVADAKDADYLIKRHLRPSPRILQGQALRDLANSAIDLSDGLISDLGHIVKASDCGARIDLALLPFSDALSRHVEPEQALRWALSGGEDYELCFTVPELNRGALDVALGHLGVPFTCIGQMTADIEGLCFIRDGEPVTLDWKGYDHFATP [P0AGG0] | 5.68 ± 0.31 | 5.14 ± 1.4 | – | 3.99 ± 0.23 | 10.2 ± 1 | 4.17 ± 0.23 | 7.02 ± 0.95 | 5.41 ± 0.33 | 12.1 ± 0.31 | 4.97 ± 0.5 | 5.41 ± 0.077 | – |
| MADILLLDNIDSFTYNLADQLRSNGHNVVIYRNHIPAQTLIERLATMSNPVLMLSPGPGVPSEAGCMPELLTRLRGKLPIIGICLGHQAIVEAYGGYVGQAGEILHGKASSIEHDGQAMFAGLTNPLPVARYHSLVGSNIPAGLTINAHFNGMVMAVRHDADRVCGFQFHPESILTTQGARLLEQTLAWAQQKLEPANTLQPILEKLYQAQTLSQQESHQLFSAVVRGELKPEQLAAALVSMKIRGEHPNEIAGAATALLENAAPFPRPDYLFADIVGTGGDGSNSINISTASAFVAAACGLKVAKHGNRSVSSKSGSSDLLAAFGINLDMNADKSRQALDELGVCFLFAPKYHTGFRHAMPVRQQLKTRTLFNVLGPLINPAHPPLALIGVYSPELVLPIAETLRVLGYQRAAVVHSGGMDEVSLHAPTIVAELHDGEIKSYQLTAEDFGLTPYHQEQLAGGTPEENRDILTRLLQGKGDAAHEAAVAANVAMLMRLHGHEDLQANAQTVLEVLRSGSAYDRVTALAARG | 3.96 ± 0.42 | 2.96 ± 0.18 | 3.02 ± 0.12 | 2.769 ± 0.019 | 10.4 ± 1.9 | 3.01 ± 0.27 | 3.72 ± 0.29 | 6.54 ± 1.6 | 12.2 ± 3.9 | 3.018 ± 0.0036 | 4.79 ± 0.1 | 3.23 ± 0.33 |
| MADKKLDTQLVNAGRSKKYTLGAVNSVIQRASSLVFDSVEAKKHATRNRANGELFYGRRGTLTHFSLQQAMCELEGGAGCVLFPCGAAAVANSILAFIEQGDHVLMTNTAYEPSQDFCSKILSKLGVTTSWFDPLIGADIVKHLQPNTKIVFLESPGSITMEVHDVPAIVAAVRSVVPDAIIMIDNTWAAGVLFKALDFGIDVSIQAATKYLVGHSDAMIGTAVCNARCWEQLRENAYLMGQMVDADTAYITSRGLRTLGVRLRQHHESSLKVAEWLAEHPQVARVNHPALPGSKGHEFWKRDFTGSSGLFSFVLKKKLNNEELANYLDNFSLFSMAYSWGGYESLILANQPEHIAAIRPQGEIDFSGTLIRLHIGLEDVDDLIADLDAGFARIV | 4.64 ± 0.42 | 3.95 ± 0.2 | 6.18 ± 0.7 | 4.33 ± 0.2 | 9.28 ± 0.72 | 4.28 ± 0.085 | – | 6.1 ± 0.46 | 12.1 ± 1.6 | 4.43 ± 0.49 | 4.76 ± 1.1 | 3.36 ± 0.33 |
| MADLDDIKDGKDFRTDQPQKNIPFTLKGCGALDWGMQSRLSRIFNPKTGKTVMLAFDHGYFQGPTTGLERIDINIAPLFEHADVLMCTRGILRSVVPPATNRPVVLRASGANSILAELSNEAVALSMDDAVRLNSCAVAAQVYIGSEYEHQSIKNIIQLVDAGMKVGMPTMAVTGVGKDMVRDQRYFSLATRIAAEMGAQIIKTYYVEKGFERIVAGCPVPIVIAGGKKLPEREALEMCWQAIDQGASGVDMGRNIFQSDHPVAMMKAVQAVVHHNETADRAYELYLSEKQ | 4.41 ± 0.29 | 3.03 ± 0.036 | 3.91 ± 0.79 | 3.6 ± 0.39 | 8.52 ± 0.53 | 3.58 | 4.43 ± 0.74 | 5.44 ± 0.21 | 11 ± 0.47 | 3.51 ± 0.53 | 5.1 ± 0.23 | 3.27 ± 0.084 |
| MADRNLRDLLAPWVPDAPSRALREMTLDSRVAAAGDLFVAVVGHQADGRRYIPQAIAQGVAAIIAEAKDEATDGEIREMHGVPVIYLSQLNERLSALAGRFYHEPSDNLRLVGVTGTNGKTTTTQLLAQWSQLLGEISAVMGTVGNGLLGKVIPTENTTGSAVDVQHELAGLVDQGATFCAMEVSSHGLVQHRVAALKFAASVFTNLSRDHLDYHGDMEHYEAAKWLLYSEHHCGQAIINADDEVGRRWLAKLPDAVAVSMEDHINPNCHGRWLKATEVNYHDSGATIRFSSSWGDGEIESHLMGAFNVSNLLLALATLLALGYPLADLLKTAARLQPVCGRMEVFTAPGKPTVVVDYAHTPDALEKALQAARLHCAGKLWCVFGCGGDRDKGKRPLMGAIAEEFADVAVVTDDNPRTEEPRAIINDILAGMLDAGHAKVMEGRAEAVTCAVMQAKENDVVLVAGKGHEDYQIVGNQRLDYSDRVTVARLLGVIA | 5.09 ± 0.76 | 3.43 ± 0.23 | 4.497 ± 0.044 | 3.39 ± 0.23 | 9.05 ± 0.4 | 3.71 ± 0.04 | 6.39 ± 0.93 | 5.18 ± 0.14 | 8.724 ± 0.074 | 3.51 ± 0.15 | 5.8 ± 0.085 | 2.65 ± 0.31 |
| MADTHHAQGPGKSVLGIGQRIVSIMVEMVETRLRLAVVELEEEKANLFQLLLMLGLTMLFAAFGLMSLMVLIIWAVDPQYRLNAMIATTVVLLLLALIGGIWTLRKSRKSTLLRHTRHELANDRQLLEEESREQ | 6.43 ± 0.14 | 7.19 ± 0.63 | 5.35 ± 1.2 | 6.49 ± 0.34 | 11 ± 0.91 | 6.27 ± 0.46 | 11.7 ± 3.4 | 4.39 ± 0.56 | – | 6.06 ± 0.94 | 5.36 ± 0.18 | 2.99 ± 0.26 |
| MADWVTGKVTKVQNWTDALFSLTVHAPVLPFTAGQFTKLGLEIDGERVQRAYSYVNSPDNPDLEFYLVTVPDGKLSPRLAALKPGDEVQVVSEAAGFFVLDEVPHCETLWMLATGTAIGPYLSILQLGKDLDRFKNLVLVHAARYAADLSYLPLMQELEKRYEGKLRIQTVVSRETAAGSLTGRIPALIESGELESTIGLPMNKETSHVMLCGNPQMVRDTQQLLKETRQMTKHLRRRPGHMTAEHYW | – | 4.14 ± 0.33 | 4.64 ± 0.33 | 3.83 ± 0.12 | 10.8 ± 0.21 | 4.29 ± 0.31 | 6.73 ± 0.41 | 5.609 ± 0.031 | 11.3 ± 0.53 | 3.93 ± 0.36 | 5.62 ± 0.29 | 2.888 ± 0.0031 |
